These are literature values, as cited in PMC4394549.

The data set concerns the target Arginyl-tRNA synthetase (Methanothermobacter thermautotrophicus) (UniProt O27496).
Sequence of UniProt O27496 (O27496 whole entry): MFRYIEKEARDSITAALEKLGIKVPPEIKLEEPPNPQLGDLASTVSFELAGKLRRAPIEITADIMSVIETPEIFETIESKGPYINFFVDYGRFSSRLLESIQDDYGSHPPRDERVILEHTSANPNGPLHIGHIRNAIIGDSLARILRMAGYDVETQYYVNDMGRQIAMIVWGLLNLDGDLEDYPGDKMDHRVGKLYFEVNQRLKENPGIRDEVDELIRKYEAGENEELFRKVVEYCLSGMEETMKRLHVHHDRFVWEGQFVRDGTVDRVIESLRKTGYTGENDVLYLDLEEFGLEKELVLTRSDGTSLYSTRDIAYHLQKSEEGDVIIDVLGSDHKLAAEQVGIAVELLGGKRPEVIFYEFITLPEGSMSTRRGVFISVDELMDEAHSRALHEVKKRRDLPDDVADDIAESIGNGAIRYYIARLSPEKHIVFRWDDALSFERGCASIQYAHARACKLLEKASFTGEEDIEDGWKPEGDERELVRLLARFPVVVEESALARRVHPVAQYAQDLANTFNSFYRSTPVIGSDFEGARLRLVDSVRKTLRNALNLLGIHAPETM

One may read the Kd as the concentration at which binding is half-saturated. On to “Seryl-tRNA synthetase (from UniProt O27194)”, for which the Kd was 250 nM.
